# Molecular target: the molecule itself
# Assay: SEC-MALS
protein,measurement,value
"N-terminal A20 protein bearing the OTU domain (residues 1-370), wild type (domain or fragment, UniProt P21580 1-370, looked up) MAEQVLPQALYLSNMRKAVKIRERTPEDIFKPTNGIIHHFKTMHRYTLEMFRTCQFCPQFREIIHKALIDRNIQATLESQKKLNWCREVRKLVALKTNGDGNCLMHATSQYMWGVQDTDLVLRKALFSTLKETDTRNFKFRWQLESLKSQEFVETGLCYDTRNWNDEWDNLIKMASTDTPMARSGLQYNSLEEIHIFVLCNILRRPIIVISDKMLRSLESGSNFAPLKVGGIYLPLHWPAQECYRYPIVLGYDSHHFVPLVTLKDSGPEIRAVPLVNRDRGRFEDLKVHFLTDPENEMKEKLLKEYLMVIEIPVQGWDHGTTHLINAAKLDEANLPKEINLVDDYFELVQHEYKKWQENSEQGRREGHAQ",stoichiometry N,2
